Source: paper PMC3100323

Target: T1, rCmeR C69S/C166S C69S;C166S (Campylobacter jejuni NCTC 11168?) (UniProt Q0PBE2)
T1 sequence: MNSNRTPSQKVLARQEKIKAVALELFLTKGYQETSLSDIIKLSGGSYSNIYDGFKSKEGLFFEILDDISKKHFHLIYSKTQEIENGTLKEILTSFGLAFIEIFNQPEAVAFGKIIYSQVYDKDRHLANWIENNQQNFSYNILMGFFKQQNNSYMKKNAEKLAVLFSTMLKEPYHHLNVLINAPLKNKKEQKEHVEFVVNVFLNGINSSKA
Experiment: EMSA
Conditions: 20 mM HEPES pH 7.6, 1 mM EDTA, 10 mM ([…], room temperature 30 min

AGGCTTTGTATTAGCTCCTATGCTTATTTAAATCAAACCCTAGGTTTTTCTCTCCTAGGGTTAAAATTTTTTCATTAGTTTTTAAGTATATACTACGCTATAATATTCATTTTTAATTTTCTTTAAGAAAGGAATTTAATGAAGATAAAAGTTGGGTTGATTTTTTCAGGTATTGCTTG (double strand) [cj0089 promoter (lipoprotein operon), 179 bp]
binding: binds more weakly
